According to patent US11116816B2, “Therapeutic vitamin d conjugates” (Extend Biosciences, Inc., priority 2014, dated 2021):
Like-named read-outs stand apart in the source and are kept apart here. One block for each molecule: values may come before it. Primed or numbered codes have the meaning given here. No end group written: not given here.

Key:
[1] = in vivo; cited from earlier work
[2] = Pharmacokinetics of apelin and apelin conjugates, intravenous; type: in vivo, Sprague-Dawley rats; conditions: for pharmacokinetic properties compared to unmodified apelin: ELISA (FIG. 5); for bioavailability improvement: AUC versus native apelin-13, 0.1 mg/kg intravenous
Description: FIG. 5: Pharmacokinetics of apelin and apelin conjugates. Apelin alone or conjugated to the Vitamin D-(25)-PEG2k-maleimide carrier, or the Vitamin D-(3)-PEG2k-aldehyde carrier were injected intravenously into Sprague-Dawley rats at 0.1 mg/kg. Plasma samples were analyzed for apelin concentration by ELISA in duplicate and the average value from three animals were plotted on the semi-log graph.
Plasma samples were taken at 5 min, and 0.5, 1, 2, 4, 8 and 24 hr and analyzed for the presence of apelin by quantitative ELISA (Phoenix Pharmaceuticals, Burlingame, Calif., Cat. No. EK-057-23). […] Unmodified apelin decayed to near-background levels within 5 minutes of injection.
The decay rates of the carrier-conjugates are complex and probably represent a combination of slower renal clearance and protection from protease degradation. A pharmacokinetic analysis of the data was then performed using WinNonLin (PharSight) and GraphPad (Prism).

[3] = Bertrand et al. 2015; cited from earlier work
[4] = natural state; WO03/011213, Kharitonenkov et al. 2005; cited from earlier work
[5] = target: T1, human FGF21 receptor (FGFR1), recruitment of co-receptor β-Klotho (Homo sapiens, UniProt P11362+Q86Z14); test: PathHunter U2OS FGFR1-β-Klotho Functional Assay; type: cell-based; conditions: PathHunter U2OS cells expressing FGFR1, β-Klotho recruitment, chemiluminescence
T1 construct: host or cells: U2OS (PathHunter)
T1 sequence (P11362 22-822): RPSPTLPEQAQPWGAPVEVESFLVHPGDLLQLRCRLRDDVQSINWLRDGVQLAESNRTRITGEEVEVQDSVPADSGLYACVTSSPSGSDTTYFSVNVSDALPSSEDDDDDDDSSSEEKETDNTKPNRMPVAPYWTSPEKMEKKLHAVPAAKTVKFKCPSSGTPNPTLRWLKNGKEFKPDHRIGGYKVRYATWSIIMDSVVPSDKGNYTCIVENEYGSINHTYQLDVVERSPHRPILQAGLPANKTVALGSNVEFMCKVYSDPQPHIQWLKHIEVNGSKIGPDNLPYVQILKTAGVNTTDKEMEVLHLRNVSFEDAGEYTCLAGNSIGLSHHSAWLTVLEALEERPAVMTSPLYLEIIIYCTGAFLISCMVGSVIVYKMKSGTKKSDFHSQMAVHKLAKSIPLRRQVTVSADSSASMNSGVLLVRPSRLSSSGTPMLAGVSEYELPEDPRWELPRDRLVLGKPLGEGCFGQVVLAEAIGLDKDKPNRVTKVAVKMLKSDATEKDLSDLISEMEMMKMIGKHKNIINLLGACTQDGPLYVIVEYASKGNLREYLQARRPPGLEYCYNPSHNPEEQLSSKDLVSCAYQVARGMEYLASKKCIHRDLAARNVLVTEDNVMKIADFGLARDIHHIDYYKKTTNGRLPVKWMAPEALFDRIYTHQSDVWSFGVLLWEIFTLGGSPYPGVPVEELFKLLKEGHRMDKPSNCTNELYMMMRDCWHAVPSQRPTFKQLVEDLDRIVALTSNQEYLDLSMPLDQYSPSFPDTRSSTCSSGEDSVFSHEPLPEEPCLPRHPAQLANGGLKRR
T1 sequence (Q86Z14 52-1044 limits assumed): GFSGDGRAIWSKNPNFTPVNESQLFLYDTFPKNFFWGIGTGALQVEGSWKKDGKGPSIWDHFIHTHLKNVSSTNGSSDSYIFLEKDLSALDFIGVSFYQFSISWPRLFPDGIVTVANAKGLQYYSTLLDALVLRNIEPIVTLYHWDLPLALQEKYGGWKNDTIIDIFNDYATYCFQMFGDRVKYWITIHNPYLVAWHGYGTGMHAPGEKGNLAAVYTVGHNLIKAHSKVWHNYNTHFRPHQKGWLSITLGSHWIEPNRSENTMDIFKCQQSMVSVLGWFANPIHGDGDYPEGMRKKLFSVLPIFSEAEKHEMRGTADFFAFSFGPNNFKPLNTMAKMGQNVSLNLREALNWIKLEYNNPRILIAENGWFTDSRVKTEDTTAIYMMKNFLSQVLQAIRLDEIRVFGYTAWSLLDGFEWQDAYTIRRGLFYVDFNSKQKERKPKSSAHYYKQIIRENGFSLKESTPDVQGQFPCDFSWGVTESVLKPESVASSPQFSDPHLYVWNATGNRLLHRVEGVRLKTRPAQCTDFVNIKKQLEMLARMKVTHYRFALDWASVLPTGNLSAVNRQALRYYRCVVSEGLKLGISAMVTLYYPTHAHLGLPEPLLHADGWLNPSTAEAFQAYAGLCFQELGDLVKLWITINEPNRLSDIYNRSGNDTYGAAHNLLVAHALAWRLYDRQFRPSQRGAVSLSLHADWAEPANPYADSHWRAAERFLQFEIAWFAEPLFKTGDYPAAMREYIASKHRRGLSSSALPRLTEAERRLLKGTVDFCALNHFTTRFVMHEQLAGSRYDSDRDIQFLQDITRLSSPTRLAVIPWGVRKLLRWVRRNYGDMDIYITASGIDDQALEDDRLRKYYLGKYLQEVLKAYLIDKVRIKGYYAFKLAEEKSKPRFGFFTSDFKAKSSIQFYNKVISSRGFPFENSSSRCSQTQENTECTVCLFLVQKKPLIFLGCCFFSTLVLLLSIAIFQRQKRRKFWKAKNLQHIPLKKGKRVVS
Description: In some embodiments, the activity of the FG21, when conjugated to a carrier, was substantially the same as unmodified protein. […] PathHunter® cells stably express human FGF21 receptor (FGFR1). They were monitored for recruitment of the co-receptor, β-Klotho, following exposure to the test compounds using the PathHunter® Detection reagent cocktail on a PerkinElmer Envision instrument with chemiluminescent signal detection. […] Thus, the FGF21 conjugates retained about the same receptor activity as the unmodified FGF21 protein or better.

[6] = Pharmacokinetics of FGF21 conjugates, subcutaneous; type: in vivo, Sprague Dawley rats; conditions: 0.1 mg/kg sc; for Cmax: plasma, human FGF21 ELISA
Description: The pharmacokinetics of FGF21 conjugates in Sprague Dawley rats were determined. Unmodified FGF21, VitD-(25)-PEG2K-FGF21 and VitD-(3)-PEG2K-FGF21 were compared. […] The samples were analyzed using commercial ELISA kits for human FGF21 (Millipore Cat. No. EZHFGF21-19K). […] Improvements in the mean residence time (MRT) and terminal rate constant (Lz) values were also observed.

[7] = 0.1 mg/kg intravenous, plasma, ELISA

Molecule: PTH: Parathyroid hormone, polypeptide containing 84 amino acids secreted by the parathyroid glands
half-life [1]: approximately 4 minutes

Molecule: VitD-(3)-PEG2K-apelin: Apelin-13 conjugated at N-terminal amine to Vitamin D-(3)-PEG2K-aldehyde carrier ({VitD‑(3)-PEG2K}-QRPRLSHKGPMPF)
AUC [2, 7]: 328 ng·h/mL
pharmacokinetic properties compared to unmodified apelin ([2]; 0.1 mg/kg intravenous, plasma): significantly improved pharmacokinetic properties
bioavailability improvement [2]: 820 fold

Molecule: VitD-(25)-PEG2K-C-apelin: C-apelin (SEQ ID NO:16, N-terminal cysteine) conjugated to VitD-(25)-PEG2K-maleimide carrier (CQRPRLSHKGPMPF; VitD-(25)-PEG2K-maleimide carrier conjugate)
AUC [2, 7]: 85 ng·h/mL
pharmacokinetic properties compared to unmodified apelin ([2]; 0.1 mg/kg intravenous, plasma): improved pharmacokinetic properties
bioavailability improvement [2]: 213 fold

Molecule: CSCC[C@H](NC(=O)[C@@H]1CCCN1C(=O)CNC(=O)[C@H](CCCCN)NC(=O)[C@H](Cc1cnc[nH]1)NC(=O)[C@H](CO)NC(=O)[C@H](CC(C)C)NC(=O)[C@H](CCCNC(=N)N)NC(=O)[C@@H]1CCCN1C(=O)[C@H](CCCNC(=N)N)NC(=O)[C@@H](N)CCC(N)=O)C(=O)N1CCC[C@H]1C(=O)N[C@@H](Cc1ccccc1)C(=O)O [apelin-13, reference compound]
time to decay to near-background levels after injection [2, 7]: ≤ 5 min
AUC ([2]; Sprague-Dawley, rat, 0.1 mg/kg intravenous, plasma, ELISA, read-out: AUC): 0.4 ng·h/mL
in vivo half-life [3]: ≤ 0.333 h

B1: FGF21 in its natural state: Fibroblast Growth Factor 21, protein that circulates in serum, natural state (protein, UniProt Q9NSA1 29-209, looked up)
Fibroblast growth factor 21: HPIPDSSPLLQFGGQVRQRYLYTDDAQQTEAHLEIREDGTVGGAADQSPESLLQLKALKPGVIQILGVKTSRFLCQRPDGALYGSLHFDPEACSFRELLLEDGYNVYQSEAHGLPLHLPGNKSPHRDPAPRGPARFLPLPGLPPALPEPPGILAPQPPDVGSSDPLSMVGPSQGRSPSYAS
half-life in serum [4]: about 1.1 hours

EC50 [5]: 0.16 µg/mL
B2: FGF21: Modified FGF21 expressed in E. coli, I3C substitution and His6 tag, SEQ ID NO:22, not conjugated (protein)
chain: MHHHHHHHPCPDSSPLLQFGGQVRQRYLYTDDAQQTEAHLEIREDGTVGGAADQSPESLLQLKALKPGVIQILGVKTSRFLCQRPDGALYGSLHFDPEACSFRELLLEDGYNVYQSEAHGLPLHLPGNKSPHRDPAPRGPARFLPLPGLPPALPEPPGILAPQPPDVGSSDPLSMVGPSQGRSPSYAS
modifications: His6 tag
AUCtot [6]: 228 h(ng/ml)
Lz (terminal rate constant) [6]: .534 h⁻¹
MRT [6]: 2.8 h
Tmax [6]: 2 h
t½ [6]: 1.3 h
Cmax [6]: 59 ng/mL

EC50 [5]: 0.40 µg/mL
B3: VitD-(3)-PEG2K-FGF21: Modified FGF21 (SEQ ID NO:22) conjugated via free cysteine to VitD-(3)-PEG2K-maleimide (conjugate)
chain: MHHHHHHHPCPDSSPLLQFGGQVRQRYLYTDDAQQTEAHLEIREDGTVGGAADQSPESLLQLKALKPGVIQILGVKTSRFLCQRPDGALYGSLHFDPEACSFRELLLEDGYNVYQSEAHGLPLHLPGNKSPHRDPAPRGPARFLPLPGLPPALPEPPGILAPQPPDVGSSDPLSMVGPSQGRSPSYAS
modifications: VitD-PEG2K-maleimide conjugated at free cysteine
AUCtot [6]: 2727 h(ng/ml)
Lz (terminal rate constant) [6]: .0604 h⁻¹
MRT [6]: 18.9 h
Tmax [6]: 4 h
half-life (t1/2) [6]: 11.5 h
half-life improvement compared to unmodified FGF21 [6]: 8.8 fold
improvement in AUC values versus unmodified FGF21 [6]: 12.0 fold
t½ [6]: 11.5 h
Cmax [6]: 118 ng/mL

EC50 [5]: 0.13 µg/mL
B4: VitD-(25)-PEG2K-FGF21: Modified FGF21 (SEQ ID NO:22) conjugated via free cysteine to VitD-(25)-PEG2K-maleimide (conjugate)
chain: MHHHHHHHPCPDSSPLLQFGGQVRQRYLYTDDAQQTEAHLEIREDGTVGGAADQSPESLLQLKALKPGVIQILGVKTSRFLCQRPDGALYGSLHFDPEACSFRELLLEDGYNVYQSEAHGLPLHLPGNKSPHRDPAPRGPARFLPLPGLPPALPEPPGILAPQPPDVGSSDPLSMVGPSQGRSPSYAS
modifications: VitD-PEG2K-maleimide conjugated at free cysteine
AUCtot [6]: 1640 h(ng/ml)
Lz (terminal rate constant) [6]: .131 h⁻¹
MRT [6]: 7.9 h
Tmax [6]: 2 h
half-life (t1/2) [6]: 5.3 h
half-life improvement compared to unmodified FGF21 [6]: 4.1 fold
improvement in AUC values versus unmodified FGF21 [6]: 7.2 fold
t½ [6]: 5.3 h
Cmax [6]: 115 ng/mL
